Data as given in the Human Domainome abundance scans (Beltran et al. 2025).
± gives the uncertainty stated by the source.

B1: Zinc finger homeobox protein 4, residues 2183 to 2238; numbered along this chain, Q86UP3 (parent)
chain: SSRTRFTDYQLRVLQDFFDTNAYPKDDEIEQLSTVLNLPTRVIVVWFQNARQKARK

Variants of: B1
Experiment: abundance fitness (aPCA) (normalised: wild type 0, dead -1); higher = more abundant; growth selection in yeast, the domain comes from the species named
Conditions: Homo sapiens

Variant	abundance fitness
R41E	-0.181 ± 0.14
R41A	0.069 ± 0.11
R41N	0.103 ± 0.21
R41P	-0.143 ± 0.13
R41K	0.033 ± 0.11
R41W	-0.335 ± 0.13
R41T	0.06 ± 0.11
R41V	-0.008 ± 0.09
R41L	-0.059 ± 0.085
R41H	-0.196 ± 0.16
R41M	-0.081 ± 0.13
R41C	-0.002 ± 0.14
R41Y	0.017 ± 0.17
R41D	0.204 ± 0.13
R41Q	0 ± 0.14
R41S	0.083 ± 0.1
V35N	-0.427 ± 0.26
V35H	-0.006 ± 0.17
V35S	0.03 ± 0.091
V35F	-0.206 ± 0.16
V35K	0.157 ± 0.12
V35Q	0.004 ± 0.12
V35D	-0.222 ± 0.16
V35Y	-0.506 ± 0.22

Variant	abundance fitness
V35L	-0.004 ± 0.094
V35C	0.02 ± 0.17
V35W	-0.202 ± 0.11
V35P	-0.297 ± 0.12
V35M	0.058 ± 0.15
V35E	-0.153 ± 0.1
V35I	-0.207 ± 0.19
V35G	0.043 ± 0.076
V35T	0.108 ± 0.11
V35R	0.06 ± 0.081
L38C	0.018 ± 0.093
L38P	-0.913 ± 0.12
L38R	-0.416 ± 0.086
L38I	-0.061 ± 0.087
L38V	-0.051 ± 0.085
L38Y	-0.431 ± 0.083
L38G	-1.04 ± 0.13
L38A	-0.019 ± 0.082
L38W	-0.735 ± 0.14
L38Q	-0.131 ± 0.11
L38F	-0.277 ± 0.087
L38M	-0.067 ± 0.1
L38N	-0.914 ± 0.099
L38T	-0.007 ± 0.075

Variant	abundance fitness
L38H	-0.305 ± 0.086
L38E	-0.366 ± 0.14
L38S	-0.275 ± 0.074
L38K	-0.357 ± 0.13
L38D	-0.709 ± 0.12
V44W	-0.253 ± 0.12
V44G	-0.059 ± 0.096
V44A	-0.067 ± 0.077
V44Q	-0.052 ± 0.089
V44I	0.05 ± 0.079
V44L	0.042 ± 0.068
V44C	0.028 ± 0.1
V44R	-0.099 ± 0.081
V44M	-0.136 ± 0.1
V44E	0.125 ± 0.13
V44K	-0.22 ± 0.11
V44N	0.002 ± 0.082
V44H	-0.027 ± 0.078
V44T	-0.094 ± 0.07
V44D	-0.064 ± 0.11
V44Y	-0.223 ± 0.093
V44S	0.008 ± 0.07
V44P	-0.356 ± 0.075
F47A	-0.406 ± 0.12

Variant	abundance fitness
F47V	-0.264 ± 0.11
F47T	-0.893 ± 0.29
F47K	-0.694 ± 0.2
F47G	-0.342 ± 0.09
F47W	-0.452 ± 0.14
F47L	-0.016 ± 0.092
F47Q	-0.829 ± 0.22
F47N	-0.778 ± 0.41
F47C	-0.471 ± 0.18
F47H	-0.6 ± 0.47
F47I	0.044 ± 0.4
F47R	-0.801 ± 0.12
F47D	-0.4 ± 0.24
F47P	-1.06 ± 0.32
F47M	-0.334 ± 0.15
F47S	-0.507 ± 0.12
F47Y	-0.207 ± 0.28
F47E	-0.967 ± 0.16
V45H	-0.298 ± 0.34
V45S	0.072 ± 0.15
V45L	0.007 ± 0.1
V45Q	-0.242 ± 0.19
V45Y	-0.149 ± 0.28
V45G	0.047 ± 0.1

Variant	abundance fitness
V45P	-0.245 ± 0.2
V45D	0.528 ± 0.19
V45E	-0.049 ± 0.19
V45R	-0.335 ± 0.11
V45K	-0.26 ± 0.16
V45I	-0.175 ± 0.12
V45N	-0.402 ± 0.44
V45A	-0.09 ± 0.11
R51W	-0.194 ± 0.13
R51D	-0.304 ± 0.26
R51I	-0.235 ± 0.2
R51G	-0.317 ± 0.1
R51T	-0.608 ± 0.24
R51K	0.035 ± 0.26
R51C	-0.128 ± 0.24
R51Y	-0.175 ± 0.31
R51Q	-0.251 ± 0.24
R51F	-0.221 ± 0.23
R51P	-0.898 ± 0.24
R51A	-0.24 ± 0.13
R51V	-0.043 ± 0.13
R51N	-0.488 ± 0.34
R51H	-0.462 ± 0.25
R51M	-0.219 ± 0.23

Variant	abundance fitness
R51E	-0.144 ± 0.27
S33T	-0.005 ± 0.13
S33P	-0.675 ± 0.15
S33V	-0.595 ± 0.3
S33R	-0.486 ± 0.19
S33Q	-0.134 ± 0.31
S33Y	-0.749 ± 0.23
P39S	-0.062 ± 0.099
P39L	-0.962 ± 0.15
P39N	-0.127 ± 0.23
P39W	-1.22 ± 0.17
P39M	-0.69 ± 0.17
P39Q	-0.095 ± 0.15
P39E	-0.037 ± 0.1
P39G	0.014 ± 0.077
P39R	-0.097 ± 0.077
P39T	-0.041 ± 0.11
P39D	0.093 ± 0.12
P39C	-0.063 ± 0.13
P39Y	-0.701 ± 0.19
P39A	-0.153 ± 0.09
P39F	-1.1 ± 0.25
P39V	-0.766 ± 0.1
P39H	0.154 ± 0.15

Variant	abundance fitness
P39K	-0.245 ± 0.14
W46E	-0.396 ± 0.27
W46P	-0.656 ± 0.36
W46R	-0.344 ± 0.11
W46T	-0.972 ± 0.48
W46V	-0.803 ± 0.18
W46L	-0.691 ± 0.17
W46C	-0.366 ± 0.21
W46A	-0.669 ± 0.19
W46M	-0.864 ± 0.3
W46G	-0.559 ± 0.16
W46S	-0.403 ± 0.17
Q48I	-0.281 ± 0.29
Q48S	-0.161 ± 0.12
Q48N	-0.132 ± 0.18
Q48D	-0.021 ± 0.15
Q48K	-0.434 ± 0.23
Q48W	-0.262 ± 0.18
Q48A	0.017 ± 0.19
Q48E	-0.134 ± 0.19
Q48R	-0.106 ± 0.1
Q48C	-0.051 ± 0.23
Q48P	-1.11 ± 0.3
Q48V	-0.061 ± 0.17

Variant	abundance fitness
Q48L	-0.441 ± 0.2
Q48H	-0.418 ± 0.26
Q48M	-0.278 ± 0.19
Q48G	-0.177 ± 0.1
Q48T	-0.082 ± 0.23
N49Q	-0.355 ± 0.19
N49F	0.005 ± 0.27
N49C	-0.252 ± 0.14
N49H	-0.077 ± 0.14
N49K	-0.153 ± 0.18
N49D	0.108 ± 0.17
N49I	-0.127 ± 0.16
N49P	-0.862 ± 0.22
N49L	-0.17 ± 0.1
N49G	-0.011 ± 0.084
N49V	-0.261 ± 0.11
N49Y	-0.246 ± 0.19
N49M	-0.168 ± 0.14
N49W	-0.352 ± 0.12
N49A	-0.418 ± 0.12
N49T	0.073 ± 0.14
N49E	0.032 ± 0.15
K53C	0.11 ± 0.13
K53H	0.126 ± 0.17

Variant	abundance fitness
K53G	0.023 ± 0.073
K53R	-0.137 ± 0.079
K53M	0.119 ± 0.15
K53E	0.262 ± 0.11
K53T	0.028 ± 0.12
K53W	-0.178 ± 0.1
K53Q	-0.155 ± 0.11
K53S	-0.06 ± 0.095
K53Y	-0.223 ± 0.19
K53L	0.144 ± 0.085
K53A	0.145 ± 0.099
K53F	0.036 ± 0.15
K53P	-0.054 ± 0.12
K53I	-0.124 ± 0.16
K53D	0.109 ± 0.16
A50I	-0.396 ± 0.41
A50K	-0.347 ± 0.2
A50C	0.045 ± 0.14
A50H	-0.394 ± 0.34
A50Q	-0.113 ± 0.18
A50N	-0.033 ± 0.22
A50L	-0.256 ± 0.12
A50F	-0.054 ± 0.28
A50E	-0.116 ± 0.15

Variant	abundance fitness
A50V	-0.044 ± 0.12
A50P	-0.87 ± 0.29
A50D	-0.57 ± 0.41
A50T	-0.087 ± 0.19
A50R	-0.155 ± 0.086
L36R	-0.811 ± 0.088
L36V	0.03 ± 0.074
L36K	-0.794 ± 0.15
L36D	-0.933 ± 0.14
L36W	-0.842 ± 0.13
L36A	-0.098 ± 0.086
L36E	-1.19 ± 0.28
L36C	0.008 ± 0.095
L36G	-0.318 ± 0.087
L36H	-0.701 ± 0.11
L36M	-0.157 ± 0.13
L36F	-0.407 ± 0.086
L36T	0.045 ± 0.081
L36N	-0.801 ± 0.1
L36Q	-0.877 ± 0.16
L36Y	-0.8 ± 0.1
T40S	-0.213 ± 0.44
T40I	0.591 ± 0.32
T40N	-0.546 ± 0.45

Variant	abundance fitness
T40P	-0.254 ± 0.28
I43F	-0.412 ± 0.23
I43C	-0.193 ± 0.37
I43A	-0.259 ± 0.12
I43K	-1.22 ± 0.26
I43D	-0.881 ± 0.29
I43N	-1.01 ± 0.31
I43S	-0.766 ± 0.16
I43E	-0.69 ± 0.16
I43H	-1.18 ± 0.29
I43T	0.032 ± 0.13
I43P	-0.869 ± 0.29
I43Q	-0.964 ± 0.24
I43W	-1.07 ± 0.24
I43L	-0.059 ± 0.1
I43G	-1.01 ± 0.15
I43V	-0.12 ± 0.11
I43M	-0.394 ± 0.16
I43R	-1 ± 0.13
T34P	-0.347 ± 0.11
T34F	0.062 ± 0.14
T34R	-0.069 ± 0.081
T34L	-0.004 ± 0.077
T34K	0.045 ± 0.12

Variant	abundance fitness
T34W	-0.244 ± 0.13
T34N	-0.183 ± 0.14
T34I	-0.256 ± 0.13
T34C	-0.106 ± 0.11
T34A	-0.049 ± 0.084
T34D	-0.162 ± 0.11
T34G	-0.134 ± 0.074
T34E	-0.165 ± 0.11
T34M	-0.145 ± 0.12
T34S	-0.066 ± 0.085
T34H	0.049 ± 0.14
T34Q	-0.128 ± 0.11
T34Y	-0.061 ± 0.14
A54G	-0.06 ± 0.12
A54D	-0.068 ± 0.12
A54H	-0.039 ± 0.094
A54C	0.062 ± 0.17
A54L	-0.079 ± 0.093
A54I	-0.096 ± 0.13
A54K	-0.232 ± 0.23
A54F	-0.06 ± 0.12
A54E	-0.013 ± 0.23
N37G	-0.126 ± 0.078
N37K	0.042 ± 0.11

Variant	abundance fitness
N37P	-0.847 ± 0.18
N37L	-0.156 ± 0.079
N37R	-0.12 ± 0.081
N37H	-0.282 ± 0.2
N37M	-0.202 ± 0.14
N37Y	-0.595 ± 0.21
N37W	-0.569 ± 0.11
N37V	-0.056 ± 0.084
N37C	-0.358 ± 0.12
N37I	-0.172 ± 0.2
N37D	-0.061 ± 0.13
N37S	-0.109 ± 0.096
N37A	-0.02 ± 0.091
N37F	-0.308 ± 0.16
N37T	0.111 ± 0.11
N37Q	-0.137 ± 0.13
V42K	-0.236 ± 0.17
V42R	-0.2 ± 0.091
V42P	-0.194 ± 0.16
V42S	-0.077 ± 0.12
V42Y	-0.18 ± 0.21
V42E	0.23 ± 0.14
V42C	-0.263 ± 0.2
V42W	-0.039 ± 0.12

Variant	abundance fitness
V42T	0.043 ± 0.15
V42A	-0.093 ± 0.12
V42N	-0.345 ± 0.27
V42H	0.03 ± 0.16
V42G	-0.065 ± 0.086
V42L	-0.155 ± 0.1
V42D	0.141 ± 0.15
V42I	0.043 ± 0.14
V42F	-0.415 ± 0.19
V42Q	-0.143 ± 0.14
Q52Y	-0.256 ± 0.28
Q52N	-0.166 ± 0.2
Q52H	-0.015 ± 0.23
Q52V	0.026 ± 0.19
Q52M	-0.308 ± 0.39
Q52R	-0.401 ± 0.19
Q52E	0.068 ± 0.32
Q52A	-0.418 ± 0.24
Q52T	0.011 ± 0.14
Q52S	-0.275 ± 0.16
Q52P	-0.049 ± 0.15
Q52L	-0.121 ± 0.11
